Experimental data from the supplement of paper PMC7125110.
± gives the standard error. For some assays here: This sample holds only a part of the variants without activity.

B1: glmS ribozyme (parent)
chain: AUAAAAGCGCCAGAACUACAGAAAUGUAGUUGACGAGGAGGAGGUUUAUCGAAUUUUCGGCGGAUGCCUCCAAA

How the values were obtained:
Details in all cases: with glucosamine-6-phosphate
glucosamine-6-phosphate [1] = variants of: B1; experiment: kcat; higher = faster cleavage; RNA array
Summary of the method: (§1)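 Glucosamine-6-phosphate in HEPES/KCl/Mg(OAc)2 buffer, at 40 μM to 10 mM, was flowed over barcoded ribozyme variants transcribed in situ by E. coli RNA polymerase on sequenced MiSeq chips. Tracking was through a hybridised Cy3 probe at 37 °C. kobs, kcat and KM came from exponential decay fits and weighted Michaelis–Menten fits of normalised per-tile medians.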

glucosamine-6-phosphate [2] = variants of: B1; experiment: KM; higher = weaker cofactor use; RNA array
Summary of the method: as §1

glucosamine-6-phosphate [3] = variants of: B1; experiment: self-cleavage kobs at 40 uM GlcN6P; higher = faster cleavage; RNA array
Summary of the method: as §1

glucosamine-6-phosphate [4] = variants of: B1; experiment: self-cleavage kobs at 160 uM GlcN6P; higher = faster cleavage; RNA array
Summary of the method: as §1

glucosamine-6-phosphate [5] = variants of: B1; experiment: self-cleavage kobs at 640 uM GlcN6P; higher = faster cleavage; RNA array
Summary of the method: as §1

glucosamine-6-phosphate [6] = variants of: B1; experiment: self-cleavage kobs at 2500 uM GlcN6P; higher = faster cleavage; RNA array
Summary of the method: as §1

glucosamine-6-phosphate [7] = variants of: B1; experiment: self-cleavage kobs at 10000 uM GlcN6P; higher = faster cleavage; RNA array
Summary of the method: as §1

Variant	kcat (glucosamine-6-phosphate [1]) [s⁻¹]	KM (glucosamine-6-phosphate [2]) [µM]	self-cleavage kobs at 40 uM GlcN6P (glucosamine-6-phosphate [3]) [s⁻¹]	self-cleavage kobs at 160 uM GlcN6P (glucosamine-6-phosphate [4]) [s⁻¹]	self-cleavage kobs at 640 uM GlcN6P (glucosamine-6-phosphate [5]) [s⁻¹]	self-cleavage kobs at 2500 uM GlcN6P (glucosamine-6-phosphate [6]) [s⁻¹]	self-cleavage kobs at 10000 uM GlcN6P (glucosamine-6-phosphate [7]) [s⁻¹]
A39G G40U	0.0022 ± 0.00044	1420 ± 510	9.64e-05 ± 1.6e-05	0.000207 ± 4.9e-05	0.000551 ± 8.8e-05	0.0015 ± 0.00022	0.00197 ± 0.00022
C34A A36C U45A	< 1e-05	–	< 1e-05	< 1e-05	–	–	–
G32U G37A	4.33e-05 ± 1.3e-05	–	–	–	–	–	3.21e-05 ± 6.6e-06
G38U A48G	< 1e-05	–	< 1e-05	–	< 1e-05	–	–
A39G G66U	0.00533 ± 0.00016	1960 ± 79	0.000107 ± 1.9e-05	–	0.00133 ± 0.00029	0.00285 ± 0.0009	0.00451 ± 0.00097
A36C U65G C70U	1.94e-05 ± 5.3e-06	–	–	–	–	–	–
A36C U55A	< 1e-05	–	–	< 1e-05	–	–	–
G38C C50U C61G	< 1e-05	–	–	–	< 1e-05	–	–
G37A A52U	5.16e-05 ± 5.1e-06	6790 ± 1600	–	< 1e-05	–	–	3.07e-05 ± 8.4e-06
G32A U49A	< 1e-05	–	–	–	–	–	–
A33U G51A	< 1e-05	394 ± 130	< 1e-05	–	–	–	–
A39U G41C	2.16e-05 ± 4.5e-07	1200 ± 150	< 1e-05	–	–	–	1.93e-05 ± 7.7e-06
U31C U69G	3.99e-05 ± 1.4e-05	–	–	–	–	5.64e-05 ± 1.6e-05	–
C34G C70A	1.99e-05 ± 6.8e-06	–	–	–	–	–	–
U31G U56G C71A	0.000443 ± 5.1e-05	3050 ± 740	–	–	–	0.000191 ± 4.5e-05	0.00035 ± 9e-05
G37C G60A C68U	1.98e-05 ± 7.3e-06	–	–	–	–	–	–
G37U U46G	< 1e-05	–	–	–	< 1e-05	–	–
G32U U45G	0.000699 ± 0.00027	–	–	–	–	6.97e-05 ± 1.1e-05	0.000203 ± 2.1e-05
G38U U65A	< 1e-05	–	–	< 1e-05	–	–	–
U31C U54A	0.00685 ± 0.0022	2980 ± 1300	0.000119 ± 1.5e-05	0.000268 ± 5.9e-05	0.00122 ± 0.00019	0.00228 ± 0.00051	0.006 ± 0.00078
G37U C61U	< 1e-05	–	–	–	–	–	–

Variant	kcat (glucosamine-6-phosphate [1]) [s⁻¹]	KM (glucosamine-6-phosphate [2]) [µM]	self-cleavage kobs at 40 uM GlcN6P (glucosamine-6-phosphate [3]) [s⁻¹]	self-cleavage kobs at 160 uM GlcN6P (glucosamine-6-phosphate [4]) [s⁻¹]	self-cleavage kobs at 640 uM GlcN6P (glucosamine-6-phosphate [5]) [s⁻¹]	self-cleavage kobs at 2500 uM GlcN6P (glucosamine-6-phosphate [6]) [s⁻¹]	self-cleavage kobs at 10000 uM GlcN6P (glucosamine-6-phosphate [7]) [s⁻¹]
G40A A48U	0.000176 ± 1.7e-05	2780 ± 590	–	–	2.83e-05 ± 8.5e-06	9.03e-05 ± 1.2e-05	0.000133 ± 1.7e-05
A33U C50U	< 1e-05	–	< 1e-05	< 1e-05	–	< 1e-05	< 1e-05
U31G A52U G62U C67G	< 1e-05	–	< 1e-05	–	–	< 1e-05	< 1e-05
G37C C70U	2.69e-05 ± 6.4e-06	–	–	–	2.26e-05 ± 9.4e-06	1.7e-05 ± 5.8e-06	3.18e-05 ± 7.2e-06
G32C U56G	5.69e-05 ± 1.6e-06	663 ± 110	< 1e-05	–	2.63e-05 ± 1.3e-05	4.76e-05 ± 1.1e-05	5.27e-05 ± 7.2e-06
A39C U54A	0.00479 ± 0.0015	1410 ± 630	0.000143 ± 4.1e-05	0.000483 ± 0.00013	0.00157 ± 0.00028	0.00219 ± 0.00068	0.00615 ± 0.0015
A39C U54C	0.00666 ± 0.0019	2400 ± 1100	0.000105 ± 2.5e-05	–	0.00125 ± 0.0003	0.00481 ± 0.00084	0.00475 ± 0.00095
A39G A64C	0.000357 ± 5.4e-05	2860 ± 950	–	–	5.91e-05 ± 2.4e-05	0.000202 ± 5.3e-05	0.000267 ± 5.3e-05
A39G A64U	0.000215 ± 3.3e-05	3440 ± 950	< 1e-05	–	3.77e-05 ± 1.6e-05	8.33e-05 ± 2.5e-05	0.000168 ± 5.5e-05
U31G G41U	0.000641 ± 0.00019	–	–	6.71e-05 ± 1.8e-05	0.000154 ± 6.3e-05	0.000806 ± 0.00017	0.000505 ± 0.0001
A33G C70G	1.95e-05 ± 6.8e-06	–	–	–	–	–	–
G40A C58U	4.57e-05 ± 1.8e-05	–	–	–	–	–	–
G35C A52G	< 1e-05	–	–	< 1e-05	< 1e-05	–	< 1e-05
G35U U54G C70A	1.53e-05 ± 4.8e-06	–	–	–	–	< 1e-05	–
A33C A39G	0.0011 ± 0.0002	5030 ± 1400	–	–	0.000138 ± 1.9e-05	0.000373 ± 9.9e-05	0.000722 ± 8.1e-05
A39G C68A	2.73e-05 ± 9.4e-06	–	–	–	–	–	–
A39C C71A	6.38e-05 ± 6.4e-06	1930 ± 720	–	–	–	4.16e-05 ± 1.1e-05	5.25e-05 ± 7.2e-06
G32U A33U	< 1e-05	–	< 1e-05	< 1e-05	–	< 1e-05	–
A33G C50A	1.1e-05 ± 2.3e-06	–	–	–	–	–	–
G35U C67G	1.19e-05 ± 2.3e-06	–	–	–	–	< 1e-05	–
G37C A53G	3.88e-05 ± 1.1e-05	–	< 1e-05	–	–	5.73e-05 ± 1.6e-05	3.11e-05 ± 1.1e-05
